Measurements published in patent publication US20220332804A1 (CSL INNOVATION, published 2022).

Assays:
Test in all cases: SPR, KD relative to WT C2;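 note: biacore SPR at 37 °C, anti-C2 mAbs captured via immobilised goat anti-human IgG, C2 alanine or serine surface mutants as analytes, 1:1 model fitted, double-referenced sensograms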
human C2 K711A = biological target: T1, human C2 K711A (human, UniProt P06681 21-752)
T1 sequence: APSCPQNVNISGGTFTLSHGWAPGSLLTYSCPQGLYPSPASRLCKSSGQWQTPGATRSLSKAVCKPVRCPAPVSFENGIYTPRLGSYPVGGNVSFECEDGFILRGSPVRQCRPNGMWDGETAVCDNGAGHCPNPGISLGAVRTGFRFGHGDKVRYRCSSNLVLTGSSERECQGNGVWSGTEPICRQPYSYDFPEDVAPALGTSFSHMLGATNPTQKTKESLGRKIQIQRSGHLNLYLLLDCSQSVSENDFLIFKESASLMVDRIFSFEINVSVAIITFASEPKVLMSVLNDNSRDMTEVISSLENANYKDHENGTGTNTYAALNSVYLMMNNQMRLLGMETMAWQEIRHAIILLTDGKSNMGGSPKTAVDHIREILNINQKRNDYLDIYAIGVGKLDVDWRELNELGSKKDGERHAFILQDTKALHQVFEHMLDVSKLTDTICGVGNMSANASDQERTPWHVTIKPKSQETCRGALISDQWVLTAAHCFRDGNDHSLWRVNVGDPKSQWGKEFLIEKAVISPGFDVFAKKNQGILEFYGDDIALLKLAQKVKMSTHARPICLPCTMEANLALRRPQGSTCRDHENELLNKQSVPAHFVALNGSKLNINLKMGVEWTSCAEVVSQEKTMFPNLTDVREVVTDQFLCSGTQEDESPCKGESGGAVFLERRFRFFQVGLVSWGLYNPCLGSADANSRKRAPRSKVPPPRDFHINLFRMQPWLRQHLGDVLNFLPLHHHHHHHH
Procedure: (§1) Surface plasmon resonance (SPR, Biacore) was used for all binding affinity analyses. In brief, goat anti-human IgG was directly immobilised onto the carboxymethyl dextran surface of CM5 sensorchips to approximately 12,000 RU using standard NHS/EDC chemistry at pH 5. The immobilised antibody surface was pre-conditioned with ten injections of polyclonal human IgG (Privigen 60 s) prepared at 1 μg/mL. Ligands (anti-C2 mAbs) were captured at the beginning of each cycle as described below. An adjacent spot or flow cell in which only Polyclonal IgG was capture was used as a reference surface. The goat anti-human IgG Fc antibody surface was regenerate in 100 mM H3PO4, injected for 45 seconds at the end of each cycle. Experiments were performed at 37° C. and the flow rate of each experiment was kept constant at 30 μL/min.
(§2) Sensogram data was double-referenced against a reference anti-IgG surface (i.e. minus anti-C2 mAb) and blank buffer injections obtained within each experiment. The binding data was fit to 1:1 (kinetic or steady-state) model using local Rmax and null refraction index (RI=0) when appropriate. Buffers and solutions were filtered (0.22 μm) prior to use.

human C2 E324A = biological target: T2, human C2 E324A (human, UniProt P06681 21-752)
T2 sequence: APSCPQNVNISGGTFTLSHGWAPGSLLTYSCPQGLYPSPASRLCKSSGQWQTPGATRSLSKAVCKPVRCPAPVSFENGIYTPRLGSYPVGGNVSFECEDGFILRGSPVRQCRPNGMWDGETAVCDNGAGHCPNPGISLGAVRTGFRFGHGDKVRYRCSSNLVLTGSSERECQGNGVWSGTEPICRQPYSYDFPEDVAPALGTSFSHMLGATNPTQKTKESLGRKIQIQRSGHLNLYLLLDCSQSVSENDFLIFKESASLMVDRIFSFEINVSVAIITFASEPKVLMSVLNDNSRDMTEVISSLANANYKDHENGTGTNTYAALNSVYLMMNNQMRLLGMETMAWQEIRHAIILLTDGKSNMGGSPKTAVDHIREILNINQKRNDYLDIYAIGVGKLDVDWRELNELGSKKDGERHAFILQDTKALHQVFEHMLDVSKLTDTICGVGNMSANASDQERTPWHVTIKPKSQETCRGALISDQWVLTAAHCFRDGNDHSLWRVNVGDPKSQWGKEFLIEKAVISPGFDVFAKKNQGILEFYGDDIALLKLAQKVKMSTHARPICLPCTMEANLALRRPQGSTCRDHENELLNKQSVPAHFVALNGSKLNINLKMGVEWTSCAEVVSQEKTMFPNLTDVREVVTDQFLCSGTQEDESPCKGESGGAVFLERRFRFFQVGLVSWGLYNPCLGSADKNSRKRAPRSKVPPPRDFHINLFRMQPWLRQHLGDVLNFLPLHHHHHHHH
Procedure: as §1, §2

human C2 L439A = biological target: T3, human C2 L439A (human, UniProt P06681 21-752)
T3 sequence: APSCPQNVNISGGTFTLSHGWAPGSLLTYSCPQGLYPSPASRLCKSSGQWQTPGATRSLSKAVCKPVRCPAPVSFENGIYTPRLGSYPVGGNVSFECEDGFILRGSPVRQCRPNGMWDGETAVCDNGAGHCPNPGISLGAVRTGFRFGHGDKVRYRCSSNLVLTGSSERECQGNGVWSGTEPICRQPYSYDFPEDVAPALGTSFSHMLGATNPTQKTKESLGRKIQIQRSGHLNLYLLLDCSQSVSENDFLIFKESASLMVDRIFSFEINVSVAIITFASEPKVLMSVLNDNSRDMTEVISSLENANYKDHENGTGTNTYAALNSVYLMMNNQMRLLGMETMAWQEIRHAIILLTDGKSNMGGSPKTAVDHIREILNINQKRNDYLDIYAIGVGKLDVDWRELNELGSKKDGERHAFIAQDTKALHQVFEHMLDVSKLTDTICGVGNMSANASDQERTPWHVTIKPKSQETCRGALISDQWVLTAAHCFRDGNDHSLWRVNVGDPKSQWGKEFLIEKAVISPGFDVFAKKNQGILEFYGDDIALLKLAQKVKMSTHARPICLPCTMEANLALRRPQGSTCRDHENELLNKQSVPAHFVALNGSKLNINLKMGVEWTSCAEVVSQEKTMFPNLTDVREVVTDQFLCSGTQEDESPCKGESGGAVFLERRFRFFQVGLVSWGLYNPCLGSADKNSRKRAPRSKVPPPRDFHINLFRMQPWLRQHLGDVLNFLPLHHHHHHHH
Procedure: as §1, §2

human C2 R493A = biological target: T4, human C2 R493A (human, UniProt P06681 21-752)
T4 sequence: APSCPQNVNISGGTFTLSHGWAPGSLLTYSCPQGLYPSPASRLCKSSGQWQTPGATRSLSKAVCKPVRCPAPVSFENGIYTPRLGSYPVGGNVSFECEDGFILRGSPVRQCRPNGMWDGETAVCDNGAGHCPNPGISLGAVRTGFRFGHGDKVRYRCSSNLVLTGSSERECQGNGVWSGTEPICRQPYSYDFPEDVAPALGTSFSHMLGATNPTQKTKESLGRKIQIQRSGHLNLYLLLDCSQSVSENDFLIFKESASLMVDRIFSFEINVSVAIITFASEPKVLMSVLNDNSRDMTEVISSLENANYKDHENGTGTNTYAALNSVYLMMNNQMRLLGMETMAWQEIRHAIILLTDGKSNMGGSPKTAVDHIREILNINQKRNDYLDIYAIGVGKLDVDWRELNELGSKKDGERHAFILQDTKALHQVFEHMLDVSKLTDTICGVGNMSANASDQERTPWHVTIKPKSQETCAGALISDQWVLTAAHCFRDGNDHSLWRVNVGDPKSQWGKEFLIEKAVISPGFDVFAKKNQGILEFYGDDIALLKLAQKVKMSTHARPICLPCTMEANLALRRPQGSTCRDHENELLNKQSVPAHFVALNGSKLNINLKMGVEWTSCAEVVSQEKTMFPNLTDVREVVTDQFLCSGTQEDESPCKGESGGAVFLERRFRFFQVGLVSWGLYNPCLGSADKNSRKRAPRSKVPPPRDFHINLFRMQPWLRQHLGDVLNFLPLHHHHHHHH
Procedure: as §1, §2

B1: RF16-226 (antibody, human IgG4 S228P, lambda)
heavy: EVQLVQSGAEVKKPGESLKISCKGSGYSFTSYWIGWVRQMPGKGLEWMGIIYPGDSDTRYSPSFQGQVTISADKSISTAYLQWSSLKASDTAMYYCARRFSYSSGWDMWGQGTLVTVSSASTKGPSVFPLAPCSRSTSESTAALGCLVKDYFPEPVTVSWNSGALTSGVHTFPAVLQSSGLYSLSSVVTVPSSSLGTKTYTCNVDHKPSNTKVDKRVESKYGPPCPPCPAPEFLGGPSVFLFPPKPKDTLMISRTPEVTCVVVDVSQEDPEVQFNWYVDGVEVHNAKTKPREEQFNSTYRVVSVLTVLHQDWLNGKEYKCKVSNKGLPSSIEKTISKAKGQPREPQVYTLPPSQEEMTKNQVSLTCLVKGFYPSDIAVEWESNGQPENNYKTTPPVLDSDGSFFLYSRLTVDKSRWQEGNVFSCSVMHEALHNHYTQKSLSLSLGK
light: SYELTQPPSVSVSPGQTARITCSGDALTSKYVAWYQQKSGLAPLLVIYEDTRRPSGIPAKFSGSSSGSVATLTISGAHGDDEADYYCYSTDASGHQRVFGGGTKLTVLSQPKAAPSVTLFPPSSEELQANKATLVCLISDFYPGAVTVAWKADGSPVKAGVETTKPSKQSNNKYAASSYLSLTPEQWKSHRSYSCQVTHEGSTVEKTVAPTECS
notes: pH-dependent anti-C2 antibody from a phage display library; also called WT
Fold diff (human C2 K711A): 5 fold | Fold diff (human C2 E324A): 1 fold | Fold diff (human C2 L439A): 12 fold | Fold diff (human C2 R493A): 2 fold
